The values that follow come from PMC4163024 (Structure (London, England : 1993), 2014).

One data set concerns the target T1, recombinant DcR3-Ig (human, UniProt O95407 30-300).
T1 sequence (looked up): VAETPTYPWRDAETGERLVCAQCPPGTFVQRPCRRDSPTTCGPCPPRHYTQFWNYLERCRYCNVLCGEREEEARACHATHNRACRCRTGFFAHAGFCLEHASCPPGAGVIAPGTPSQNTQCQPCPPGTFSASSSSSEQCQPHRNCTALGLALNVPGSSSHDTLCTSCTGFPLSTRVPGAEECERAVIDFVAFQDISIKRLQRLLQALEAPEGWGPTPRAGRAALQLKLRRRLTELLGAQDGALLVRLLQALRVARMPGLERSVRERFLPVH
Put plainly: SPR.

A further data set deals with recombinant LTβR-Ig (UniProt P36941 31-227). Put plainly: SPR. On the technique in general: Surface plasmon resonance follows binding to a sensor surface in real time, without labels.
Chain of recombinant LTβR-Ig (P36941 31-227): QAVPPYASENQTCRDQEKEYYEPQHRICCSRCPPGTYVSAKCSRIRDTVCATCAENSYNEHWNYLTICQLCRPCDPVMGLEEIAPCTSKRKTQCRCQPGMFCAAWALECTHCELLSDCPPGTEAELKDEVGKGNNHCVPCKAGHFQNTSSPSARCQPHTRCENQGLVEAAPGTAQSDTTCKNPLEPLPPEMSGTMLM
The data set “crystal structure” concerns the molecule itself. Put plainly: crystal structure.

Residue numbers refer to the chain shown, from its start.

B1: Soluble LIGHT (residues L83-V240), wild type (ligand, human, UniProt O43557 83-240, looked up)
chain: LIQERRSHEVNPAAHLTGANSSLTGSGGPLLWETQLGLAFLRGLSYHDGALVVTKAGYYYIYSKVQLGGVGCPLGLASTITHGLYKRTPRYPEELELLVSQQSPCGRATSSSRVWWDSSFLGGVVHLEAGEKVVVRVLDERLVRLRDGTRSYFGAFMV
For orientation: Kd means a measure of binding affinity in units of concentration. What is called stoichiometry N is the number of molecules, sites or subunits per partner or assembly. Turning to B1, the Kd with recombinant DcR3-Ig is 16.7 ± 0.3 nM; in the data set with recombinant LTβR-Ig it was 11.2 ± 0.6 nM. Moreover, the “stoichiometry N” value in “crystal structure” came out at 3.

B2: LIGHT mutant 2 (EF loop 195-198 replaced by the TL1A loop) (ligand, human)
chain: B1 chain with R113S, V114N, W116F
On to B2, for which the dissociation constant Kd in the data set with recombinant DcR3-Ig turned out to be 153 ± 54 nM; with recombinant LTβR-Ig, 17.2 ± 14 nM.

B3: LIGHT mutant 1 (GH loop 226-231 replaced by the TL1A loop) (ligand, human)
chain: B1 chain with R144D, L145Y, R146T, D147K, G148E, T149D
As for B3, the figures for the dissociation constant Kd with recombinant DcR3-Ig and with recombinant LTβR-Ig were 36 ± 1.8 nM and 21 ± 3.3 nM, respectively.
